No end group written: not given here.
What was measured:
rabbit immunoglobulins = experiment: Affinity chromatography of crude rabbit serum on a column of immobilized peptide, with polyacrylamide gel electrophoresis of the fractions; format: binding
Procedure: The peptide of formula (H-L-Arg-L-Thr-L-Tyr-)4-Lys2-Lys-Gly-OH (5 mg) was dissolved in 5 ml of 0.1 M sodium bicarbonate buffer pH 9.0 and then added to 1.2 g of activated resin CH-Sepharose 4B (Pharmacia, Uppsala, Sweden Cat. No. 17-0490-01), which is a chromatographic support for affinity chromatography preactivated for the direct coupling to peptides and proteins. The suspension was shaken for 24 h and the coupling level was monitored by taking aliquots of the reaction mixture at different times and subsequent RP-HPLC analysis.
Approximately 90% of initial peptide resulted covalently linked to the resin after 24 h. The derivatized resin was washed with 50 ml of 1 M TRIS pH 9.0 and then packed on a glass column (100×6.6 mm I.D.).
(§1) In order to purify immunoglobulins, the column was equilibrated with a 25 mM BIS-TRIS buffer (SIGMA, Cat. B9754) pH 6.5, at a flow rate of 1 ml/min, while the eluent was monitored at 280 nm. One milliliter of crude rabbit serum (SIGMA Cat. No. R 9133) was then loaded on the column, and after elution of non retained material at the column void volume, the eluent was changed to 0.1 M acetic acid.
(§2) Material desorbed by such a treatment was collected and analyzed by electrophoretic analysis on a polyacrylamide gel.
(§3) The purification of rabbit immunoglobulins from crude serum by affinity chromatography is shown in FIG. 1 while the electrophoretic analysis of the collected fractions is shown in FIG. 2. […] Furthermore, in FIG. 2 are also shown the electrophoretic analyses corresponding to several rabbit immunoglobulins purifications obtained after equilibration of the affinity column with different buffers, namely 0.1 M ammonium acetate pH 5.7 (A), 0.1 M sodium phosphate pH 7.0 (B), or 0.1 M sodium phosphate pH 8.5 (C).

albumin = target: T1, albumin (Oryctolagus cuniculus, UniProt P49065); experiment: Affinity chromatography of crude rabbit serum on a column of immobilized ligand: retention or carry-over of albumin; format: binding
T1 construct: tissue SIGMA R 9133; host or cells: crude rabbit serum
T1 sequence (P49065 25-608): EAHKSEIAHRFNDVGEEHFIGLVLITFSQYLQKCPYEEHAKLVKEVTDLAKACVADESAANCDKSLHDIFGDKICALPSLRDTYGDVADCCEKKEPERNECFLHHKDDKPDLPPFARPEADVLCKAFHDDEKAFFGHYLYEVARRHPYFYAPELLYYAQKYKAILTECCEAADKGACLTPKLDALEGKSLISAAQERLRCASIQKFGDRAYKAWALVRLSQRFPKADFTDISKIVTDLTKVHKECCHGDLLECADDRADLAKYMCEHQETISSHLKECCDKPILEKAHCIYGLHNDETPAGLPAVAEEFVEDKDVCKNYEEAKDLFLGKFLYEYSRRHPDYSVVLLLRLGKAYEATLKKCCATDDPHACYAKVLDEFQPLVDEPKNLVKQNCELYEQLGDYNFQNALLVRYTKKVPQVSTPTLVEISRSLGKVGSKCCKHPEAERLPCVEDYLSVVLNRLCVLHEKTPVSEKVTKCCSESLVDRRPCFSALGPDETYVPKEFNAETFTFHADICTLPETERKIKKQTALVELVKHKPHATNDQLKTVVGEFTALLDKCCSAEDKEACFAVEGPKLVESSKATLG
Procedure: as §1, §2, §3
Indeed similar results were attained with other supports such as Protein-Pak (Waters, USA), Eupergit C30N (Sigma, USA) and Affi-Gel (Bio-Rad, USA).

[1] = target: albumin of crude rabbit serum (rabbit, UniProt P49065 25-608); experiment: affinity chromatography of crude rabbit serum on the peptide immobilised on CH-Sepharose 4B; SDS-PAGE of fractions
Chain of albumin of crude rabbit serum (P49065 25-608 limits assumed): as the sequence (P49065 25-608) above

For “(H-L-Arg-L-Thr-L-Tyr-)4-Lys2-Lys-Gly-OH (peptide H-Arg-Thr-Tyr; chain KKKG-OH; also: branched tetramer: four RTY arms on the alpha and epsilon amines of two Lys, which are attached to the alpha and epsilon amines of a central Lys followed by Gly)”, the “purification of immunoglobulins from contaminants after equilibration with different buffers” value (rabbit immunoglobulins; 0.1 M ammonium acetate pH 5.7, 0.1 M sodium phosphate pH 7.0 or pH 8.5, desorbed with 0.1 M acetic acid) was “optimal purification of immunoglobulins from contaminants was achieved”, the “retention of the immunoglobulin fraction from crude serum by the column” value (rabbit immunoglobulins; 1 ml crude rabbit serum, 25 mM BIS-TRIS pH 6.5, elution with 0.1 M acetic acid, peptide on CH-Sepharose 4B) was “able to retain the immunoglobulin fraction from the crude serum” and the “purification capability of the column” value (rabbit immunoglobulins; immunoglobulins purified from 0.5 ml, 1 ml and 1.5 ml of serum) was “remarkable purification capability”. For the same molecule, the “retention of albumin by the column” value (albumin; 1 ml crude rabbit serum, 25 mM BIS-TRIS pH 6.5, peptide on CH-Sepharose 4B) was “albumin was not retained” and the “column selectivity compared with immobilized protein A columns” value (albumin; same serum, columns of the same dimensions) was “superior to that of columns with immobilized protein A”.

For “protein A: protein obtained from Staphylococcus aureus, binds specifically to the constant portion of immunoglobulins; comparator affinity ligand [reference compound]”, the “albumin in the purified fractions” value (albumin; same serum, immobilized protein A column of the same dimensions) was “always comprising traces of albumin”.

B1: (H-L-Arg-L-Thr-L-Tyr-)4-Lys2-Lys-Gly-OH (peptide)
peptide: H-Arg-Thr-Tyr
chain: KKKG-OH
modifications: also: branched tetramer: four RTY arms on the alpha and epsilon amines of two Lys, which are attached to the alpha and epsilon amines of a central Lys followed by Gly
notes: Synthetic branched tetramer; also called (H2N-Arg-Thr-Tyr-CO)4-Lys2Lys-Gly-OH; tetrameric tripeptide (H-L-Arg-L-Thr-L-Tyr-)4-Lys2-Lys-COOH
B1: no binding [1].
